Patent publication US20230065562A1, “DUAL CONTROLS FOR THERAPEUTIC CELL ACTIVATION OR ELIMINATION” (Bellicum Pharmaceuticals, Inc., priority 2015, published 2023)
“Also recorded” adds a separate entry of the source.

B1: F404W: modified iCasp9, F404W (protein)
chain: VDGFGDVGALESLRGNADLAYILSMEPCGHCLIINNVNFCRESGLRTRTGSNIDCEKLRRRFSSLHFMVEVKGDLTAKKMVLALLELARQDHGALDCCVVVILSHGCQASHLQFPGAVYGTDGCPVSVEKIVNIFNGTSCPSLGGKPKLFFIQACGGEQKDHGFEVASTSPEDESPGSNPEPDATPFQEGLRTFDQLDAISSLPTPSDIFVSYSTFPGFVSWRDPKSGSWYVETLDDIFEQWAHSEDLQSLLLRVANAVSVKGIYKQMPGCWNFLRKKLFFKTSASRA
B2: F406T: modified iCasp9, F406T (protein)
chain: VDGFGDVGALESLRGNADLAYILSMEPCGHCLIINNVNFCRESGLRTRTGSNIDCEKLRRRFSSLHFMVEVKGDLTAKKMVLALLELARQDHGALDCCVVVILSHGCQASHLQFPGAVYGTDGCPVSVEKIVNIFNGTSCPSLGGKPKLFFIQACGGEQKDHGFEVASTSPEDESPGSNPEPDATPFQEGLRTFDQLDAISSLPTPSDIFVSYSTFPGFVSWRDPKSGSWYVETLDDIFEQWAHSEDLQSLLLRVANAVSVKGIYKQMPGCFNTLRKKLFFKTSASRA
B3: F406L: modified iCasp9, F406L (protein)
chain: VDGFGDVGALESLRGNADLAYILSMEPCGHCLIINNVNFCRESGLRTRTGSNIDCEKLRRRFSSLHFMVEVKGDLTAKKMVLALLELARQDHGALDCCVVVILSHGCQASHLQFPGAVYGTDGCPVSVEKIVNIFNGTSCPSLGGKPKLFFIQACGGEQKDHGFEVASTSPEDESPGSNPEPDATPFQEGLRTFDQLDAISSLPTPSDIFVSYSTFPGFVSWRDPKSGSWYVETLDDIFEQWAHSEDLQSLLLRVANAVSVKGIYKQMPGCFNLLRKKLFFKTSASRA
B4: D330A-N405Q: modified iCasp9 double mutant (SEQ ID NO: 28) (protein)
chain: GFGDVGALESLRGNADLAYILSMEPCGHCLIINNVNFCRESGLRTRTGSNIDCEKLRRRFSSLHFMVEVKGDLTAKKMVLALLELARQDHGALDCCVVVILSHGCQASHLQFPGAVYGTDGCPVSVEKIVNIFNGTSCPSLGGKPKLFFIQACGGEQKDHGFEVASTSPEDESPGSNPEPDATPFQEGLRTFDQLAAISSLPTPSDIFVSYSTFPGFVSWRDPKSGSWYVETLDDIFEQWAHSEDLQSLLLRVANAVSVKGIYKQMPGCFQFLRKKLFFKTS
B5: F404A: modified iCasp9, F404A (protein, UniProt P55211 1-416, looked up, variant F404A)
chain: MDEADRRLLRRCRLRLVEELQVDQLWDALLSRELFRPHMIEDIQRAGSGSRRDQARQLIIDLETRGSQALPLFISCLEDTGQDMLASFLRTNRQAAKLSKPTLENLTPVVLRPEIRKPEVLRPETPRPVDIGSGGFGDVGALESLRGNADLAYILSMEPCGHCLIINNVNFCRESGLRTRTGSNIDCEKLRRRFSSLHFMVEVKGDLTAKKMVLALLELAQQDHGALDCCVVVILSHGCQASHLQFPGAVYGTDGCPVSVEKIVNIFNGTSCPSLGGKPKLFFIQACGGEQKDHGFEVASTSPEDESPGSNPEPDATPFQEGLRTFDQLDAISSLPTPSDIFVSYSTFPGFVSWRDPKSGSWYVETLDDIFEQWAHSEDLQSLLLRVANAVSVKGIYKQMPGCANFLRKKLFFKTS
modifications: FKBP12-F36V fusion (iCasp9), CARD deleted
B6: G402I: modified iCasp9, G402I (protein, UniProt P55211 1-416, looked up, variant G402I)
chain: MDEADRRLLRRCRLRLVEELQVDQLWDALLSRELFRPHMIEDIQRAGSGSRRDQARQLIIDLETRGSQALPLFISCLEDTGQDMLASFLRTNRQAAKLSKPTLENLTPVVLRPEIRKPEVLRPETPRPVDIGSGGFGDVGALESLRGNADLAYILSMEPCGHCLIINNVNFCRESGLRTRTGSNIDCEKLRRRFSSLHFMVEVKGDLTAKKMVLALLELAQQDHGALDCCVVVILSHGCQASHLQFPGAVYGTDGCPVSVEKIVNIFNGTSCPSLGGKPKLFFIQACGGEQKDHGFEVASTSPEDESPGSNPEPDATPFQEGLRTFDQLDAISSLPTPSDIFVSYSTFPGFVSWRDPKSGSWYVETLDDIFEQWAHSEDLQSLLLRVANAVSVKGIYKQMPICFNFLRKKLFFKTS
modifications: FKBP12-F36V fusion (iCasp9), CARD deleted
B7: F406A: modified iCasp9, F406A (protein, UniProt P55211 1-416, looked up, variant F406A)
chain: MDEADRRLLRRCRLRLVEELQVDQLWDALLSRELFRPHMIEDIQRAGSGSRRDQARQLIIDLETRGSQALPLFISCLEDTGQDMLASFLRTNRQAAKLSKPTLENLTPVVLRPEIRKPEVLRPETPRPVDIGSGGFGDVGALESLRGNADLAYILSMEPCGHCLIINNVNFCRESGLRTRTGSNIDCEKLRRRFSSLHFMVEVKGDLTAKKMVLALLELAQQDHGALDCCVVVILSHGCQASHLQFPGAVYGTDGCPVSVEKIVNIFNGTSCPSLGGKPKLFFIQACGGEQKDHGFEVASTSPEDESPGSNPEPDATPFQEGLRTFDQLDAISSLPTPSDIFVSYSTFPGFVSWRDPKSGSWYVETLDDIFEQWAHSEDLQSLLLRVANAVSVKGIYKQMPGCFNALRKKLFFKTS
modifications: FKBP12-F36V fusion (iCasp9), CARD deleted
B8: N405A: modified iCasp9, N405A (protein, UniProt P55211 1-416, looked up, variant N405A)
chain: MDEADRRLLRRCRLRLVEELQVDQLWDALLSRELFRPHMIEDIQRAGSGSRRDQARQLIIDLETRGSQALPLFISCLEDTGQDMLASFLRTNRQAAKLSKPTLENLTPVVLRPEIRKPEVLRPETPRPVDIGSGGFGDVGALESLRGNADLAYILSMEPCGHCLIINNVNFCRESGLRTRTGSNIDCEKLRRRFSSLHFMVEVKGDLTAKKMVLALLELAQQDHGALDCCVVVILSHGCQASHLQFPGAVYGTDGCPVSVEKIVNIFNGTSCPSLGGKPKLFFIQACGGEQKDHGFEVASTSPEDESPGSNPEPDATPFQEGLRTFDQLDAISSLPTPSDIFVSYSTFPGFVSWRDPKSGSWYVETLDDIFEQWAHSEDLQSLLLRVANAVSVKGIYKQMPGCFAFLRKKLFFKTS
modifications: FKBP12-F36V fusion (iCasp9), CARD deleted
B9: F406W: modified iCasp9, F406W (protein, UniProt P55211 1-416, looked up, variant F406W)
chain: MDEADRRLLRRCRLRLVEELQVDQLWDALLSRELFRPHMIEDIQRAGSGSRRDQARQLIIDLETRGSQALPLFISCLEDTGQDMLASFLRTNRQAAKLSKPTLENLTPVVLRPEIRKPEVLRPETPRPVDIGSGGFGDVGALESLRGNADLAYILSMEPCGHCLIINNVNFCRESGLRTRTGSNIDCEKLRRRFSSLHFMVEVKGDLTAKKMVLALLELAQQDHGALDCCVVVILSHGCQASHLQFPGAVYGTDGCPVSVEKIVNIFNGTSCPSLGGKPKLFFIQACGGEQKDHGFEVASTSPEDESPGSNPEPDATPFQEGLRTFDQLDAISSLPTPSDIFVSYSTFPGFVSWRDPKSGSWYVETLDDIFEQWAHSEDLQSLLLRVANAVSVKGIYKQMPGCFNWLRKKLFFKTS
modifications: FKBP12-F36V fusion (iCasp9), CARD deleted
B10: N405T: modified iCasp9, N405T (protein, UniProt P55211 1-416, looked up, variant N405T)
chain: MDEADRRLLRRCRLRLVEELQVDQLWDALLSRELFRPHMIEDIQRAGSGSRRDQARQLIIDLETRGSQALPLFISCLEDTGQDMLASFLRTNRQAAKLSKPTLENLTPVVLRPEIRKPEVLRPETPRPVDIGSGGFGDVGALESLRGNADLAYILSMEPCGHCLIINNVNFCRESGLRTRTGSNIDCEKLRRRFSSLHFMVEVKGDLTAKKMVLALLELAQQDHGALDCCVVVILSHGCQASHLQFPGAVYGTDGCPVSVEKIVNIFNGTSCPSLGGKPKLFFIQACGGEQKDHGFEVASTSPEDESPGSNPEPDATPFQEGLRTFDQLDAISSLPTPSDIFVSYSTFPGFVSWRDPKSGSWYVETLDDIFEQWAHSEDLQSLLLRVANAVSVKGIYKQMPGCFTFLRKKLFFKTS
modifications: FKBP12-F36V fusion (iCasp9), CARD deleted

Test system: HEK293T/16 cells
Assay: Secreted alkaline phosphatase (SEAP)-based surrogate killing assay of iCasp9 mutants
Assay type: cell-based, human
Details: for Basal Activity (relative to wild type/unmodified Caspase-9): SEAP assay without AP1903; for basal activity: relative SEAP activity Units: no AP1903
Protocol: Early passage HEK293T/16 cells (ATCC, Manassas, Va.) were maintained in IMDM, GlutaMAX™ (Life Technologies, Carlsbad, Calif.) supplemented with 10% FBS, 100 U/mL penicillin, and 100 […] until transfection in a humidified, 37° C., 5% CO2/95% air atmosphere. Cells in logarithmic-phase growth were transiently transfected with 800 ng to 2 μg of expression plasmid encoding iCasp9 mutants and 500 ng of an expression plasmid encoding SRα promoter driven SEAP per million cells in 15-mL conical tubes. […] GeneJammer® Transfection Reagent at a ratio of 3 μl per ug of plasmid DNA was used to transiently transfect HEK293T/16 cells in the absence of antibiotics. 100 μl or 2 mL of the transfection mixture was added to each well in 96-well or 6-well plate, respectively.
Briefly, after 65° C. heat denaturation for 45 minutes to reduce background caused by endogenous (and serum-derived) alkaline phosphatases that are sensitive to heat, 5 μl of supernatants was added to 95 μl of PBS and added to 100 μl of substrate buffer, containing 1 μl of 100 mM 4-methylumbelliferyl phosphate (4-MUP; Sigma, St. Louis, Mo.) re-suspended in 2 M diethanolamine. Hydrolysis of 4-MUP by SEAP produces a fluorescent […] with excitation/emission (355/460 nm), which can be easily measured. Assays were performed in black opaque 96-well plates to minimize fluorescence leakage between wells. […] of the mixture was seeded onto each well of a 96-well plate. […] For the assay, 4-methylumbelliferyl phosphate substrate was hydrolyzed by SEAP to 4-methylumbelliferon, a metabolite that can be excited with 364 nm and detected with an emission filter of 448 nm. Since SEAP is used as a marker for cell viability, reduced SEAP reading corresponds with increased iCaspase-9 activities.

Molecule | Basal Activity (relative to wild type/unmodified Caspase-9) | other results
B1 | lowered basal activity; also recorded: Decreased | 
B2 | lowered basal activity; also recorded: Decreased | 
B3 | lowered basal activity and dead | 
B4 | intermediate; also recorded: Decreased | basal activity: relative SEAP activity Units (1 μg iCasp9 per million cells): 205772 Units; basal activity: relative SEAP activity Units (2 μg iCasp9 per million cells): 174366 Units; IC50 (AP1903, SEAP screening assay): 0.05 nM
B5 | lowered basal activity and dead | 
B6 | dead | Basal Activity (relative to wild type/unmodified Caspase-9) (listed as G4021): catalytically inactive
B7 | lowered basal activity; also recorded: Decreased | 
B8 | no effect | 
B9 | lowered basal activity; also recorded: Decreased | 
B10 | increased basal activity | 
